Assay: yeast display, Sf9 membrane polyspecificity reagent, FACS + sequencing; frameworks hold sequencing errors
Outline: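 Nanobodies from a synthetic yeast display library (Saccharomyces cerevisiae BJ5465), induced 36–48 hours with galactose, were stained 1 hour at 4 °C with 10% biotinylated, detergent-solubilized Sf9 membrane reagent, enriched on streptavidin microbeads, then FACS-sorted. Anti-HA (expression) and streptavidin (reagent binding) fluorescence set low and high (top ~1%) gates. Polyreactivity labels come from the gate of origin. Genes were colony-PCR amplified, MiSeq 2 × 250 sequenced and filtered by CDR length.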
With “QVQLVESGGGLVQAGGSLRLSCAASGCTFSIYAMGWYRQAPGKERELVAAFTGTVGSTYYADSVKVRFTISRDNAKNTVYLQMKSLKPEDTAVYYCNVDWFWNWRGYYWGQGTQVTVSS” the “polyreactivity (PSR sort gate)” value was “low polyreactivity”.
In the case of “QVQLVESGGGLVQAGGSLRLSCAASGDIFDAYAMGWYRQAPGKERELVAAISRSGGSTYYADSVKGRFTISRDNAKNTVYLQMNSLKPEDTAVYYCATRFSRRYVRYDYWGHGTQVTVSS”, the “polyreactivity (PSR sort gate)” value is reported as “high polyreactivity”.
For “QVQLVESGGGLVQAGGSLRLSCAASGFFFDEYAMGWYRLAPGKERELVAAIDVGGSTYYADSVKGRFTISRDNAKNTVYLQMNSLKPEDTAVYYCARDAFSVSDFSYASIEYDYWGQGTQVTVSS”, the “polyreactivity (PSR sort gate)” value was “low polyreactivity”.
With “QVQLVESGGGLVQAGGSLRLSCAASGFICTGYTMGWYRQAPGKERELVARISSGDSTKYADSVKGRFTISRDNAKNTVYLQMNSLKPEDTAVYYCNVRDRRSIRSRSDYWGQGTQVTVSS” the “polyreactivity (PSR sort gate)” value was “high polyreactivity”.
With “QVQLVESGGGLVQAGGSLRLSCAASGFICYFYAMGWYRQAPGKERELVAVITQSGGSTYYADSVKGRFTISRDNAKNTVYLQMNSLKPEDTAVYYCNADTVRYYPFFSVRYYYWGQGTQVTVSS” the “polyreactivity (PSR sort gate)” value was “low polyreactivity”.
For “QVQLVESGGGLVQAGGSLRLSCAASGFIFADYDMGWYRQAPGKERELVAAISWSGGTTYYADSVKGRFTISRDNAKNTVYLQMNSLKPEDTAVYYCAAYWWAVYSVVTGARYDYWGQGTQVTVSS”, the “polyreactivity (PSR sort gate)” value was “high polyreactivity”.
For “QVQLVESGGGLVQAGGSLRLSCAASGFIFAEYAMGWYRQAPWKERELVAAITRSGGRTYYADSVKGRFTISRDNAKNTVYLQMNSLKPEDTAVYYCAAGLGYPRLYYCGQGTQVTVSS”, the “polyreactivity (PSR sort gate)” value was “high polyreactivity”.
With “QVQLVESGGGLVQAGGSLRLSCAASGFIFAFYDMGWYRQAPGKERELVAAISWGGSTYYADSVKGRFTISRDNAKNTVYLQMNSLKPQDTAVYYCAARLSRSYRYGYWGQGTQVTVSS” the “polyreactivity (PSR sort gate)” value was “high polyreactivity”.
In the case of “QVQLVESGGGLVQAGGSLRLSCAASGFIFAGYALGWYRQAPGKERELVAAISSGGGSTYYADSVKGRFTISRDNAKNTGYLQMNSLKPEDTAVYYCAARRLYPPGYYYWGQGTQVTVSS”, the “polyreactivity (PSR sort gate)” value is reported as “high polyreactivity”.
With “QVQLVESGGGLVQAGGSLRLSCAASGFIFAIYAMGWYRQAPGKEMELVAAITSSGGSTYYADSVKGRFTISRDNAKNTVYLQMNSLKPEDTAVYYCNKLSWRKYLGYEYWGQGTHVTVSS” the “polyreactivity (PSR sort gate)” value was “high polyreactivity”.
With “QVQLVESGGGLVQAGGSLRLSCAASGFIFALYAMGWYRQAPGKERELVASISKSGARTYYADSVKGRFTISRDNAKNTVDLQMNSLKPEDPAVYYCAALYRTGGIQYAGYGYWGQGTQVTVSS” the “polyreactivity (PSR sort gate)” value was “high polyreactivity”.
For “QVQLVESGGGLVQAGGSLRLSCAASGFIFANYGMGWYRQAPGKERELVAAISSGGRTYYADSVKARFTISRDNAKNTVYFQMNSLQPEDTAVYYCAAVVRRYNAEDYWGQGTQVTVSS”, the “polyreactivity (PSR sort gate)” value was “high polyreactivity”.
In the case of “QVQLVESGGGLVQAGGSLRLSCAASGFIFAQNAMGWYRQAPGKERELVAAISGSGGRTYYADSVKGRFTISRDNAKNTVYLQMNSLKPEDTAVYYCAAQYFSGYWGQGTQVTVSS”, the “polyreactivity (PSR sort gate)” value is reported as “high polyreactivity”.
With “QVQLVESGGGLVQAGGSLRLSCAASGFIFASNAMGWYRPAPGKERELVAAISTNGGSTNYADSVKGRFTISRDNAKKTVYLQMNSLKPEDTAVYYCNTDFPTQYGTRIGDDYWGQGTQVTVSS” the “polyreactivity (PSR sort gate)” value was “low polyreactivity”.
In the case of “QVQLVESGGGLVQAGGSLRLSCAASGFIFATNNMGWYRQAPGKERELVAASSTYYADSVKGRFTISRDNAKNTVYLQMNSLKPEDTAVYYCNALYRYLYRSGDYWGLGTQVTVSS”, the “polyreactivity (PSR sort gate)” value is reported as “low polyreactivity”.
With “QVQLVESGGGLVQAGGSLRLSCAASGFIFAVNAMGWYRPAPGKERELVAAISRSGGTTYYADSVKGRFTISRDNAKNTVYLQMNSLKPEDTAVYYCARSSGLRSWRSSDYWGQGTQVTVSS” the “polyreactivity (PSR sort gate)” value was “high polyreactivity”.
In the case of “QVQLVESGGGLVQAGGSLRLSCAASGFIFAYNAMGWYRQAPGKEWELVAAISWSGGSTYYADSVKGRFTISRDNAKNTVYLQMNSLKPEDTAVYYCNKYLRYPFKRYGYWGQGTQVTVSS”, the “polyreactivity (PSR sort gate)” value is reported as “high polyreactivity”.
For “QVQLVESGGGLVQAGGSLRLSCAASGFIFAYYAMGRYRQAPGKEREFVAVINWSGGITYYADSVKGRFTISRDNAKNTVYLQMNSLKPEDTAVYYCAADELAGYDYWGQGTQVTVSS”, the “polyreactivity (PSR sort gate)” value was “low polyreactivity”.
With “QVQLVESGGGLVQAGGSLRLSCAASGFIFAYYAMGRYRQAPGKERELVAAITIDGSTYYADSVKGRFTIHDNAKNTVYLQMNRLKPEDTAVYYCNAGRWVYWQNNFGDYGYWGQGTQVTVSS” the “polyreactivity (PSR sort gate)” value was “low polyreactivity”.
For “QVQLVESGGGLVQAGGSLRLSCAASGFIFAYYAMGWYRQAPGKERELVAAISQSGTSTYYADSVKGRFTISRDNAKNTVYLQMNSLKPEDTAVYYCNVVPTGVHIFDYWGQGTQVTVSS”, the “polyreactivity (PSR sort gate)” value was “low polyreactivity”.
With “QVQLVESGGGLVQAGGSLRLSCAASGFIFAYYAMGWYRQAPGKERELVAAISSRAGRTYYADSVKGRFTISRDNAKNTVYLQMNSLKPEYTAVYYWAAPTSSSGRYHRYYYWGQGTQVTVSS” the “polyreactivity (PSR sort gate)” value was “high polyreactivity”.
With “QVQLVESGGGLVQAGGSLRLSCAASGFIFAYYAMGWYRQAPGKERELVAAISSSGGSTYYADSVKGRFTISRDNAKNTVYLQMNSLKPEDTAVYFCNRRWVAPYFYSRYYSGQEEGYWGQGTQVTVSS” the “polyreactivity (PSR sort gate)” value was “high polyreactivity”.

Reference: the nanobody polyreactivity screen of Harvey et al. (2022)
